Experimental data: the DeepSol protein solubility set

test: soluble on expression in E. coli; label from the status in PepcDB or PDB records

Sequence	soluble on expression in E. coli
REIGENTYIVEGSMTLNDFNEHFDTELESDDVDTIAGYYLTGVGAIPTQEVKEHYEVINKDKRLEFINDKVKDGRVTKLKVIITAAPEEAGE	not soluble
SNAMPQQKNFVTMPAQHQNKQPGIESLMNPLPQFEDPNYKGSEKLKGKNVLITGGDSGIGRAVSIAFAKEGANIAIAYLDEEGDANETKQYVEKEGVKCVLLPGDLSDEQHCKDIVQETVRQLGSLNILVNNVAQQYPQQGLEYITAEQLEKTFRINIFSYFHVTKAALSHLKQGDVIINTASIVAYEGNETLIDYSATKGAIVAFTRSLSQSLVQKGIRVNGVAPGPIWTPLIPSSFDEKKVSQFGSNVPMQRPGQPYELAPAYVYLASSDSSYVTGQMIHVNGGVIVNG	soluble
MAADISESSGADCKGDPRNSAKLDADYPLRVLYCGVCSLPTEYCEYMPDVAKCRQWLEKNFPNEFAKLTVENSPKQEAGISEGQGTAGEEEEKKKQKRGGRGQIKQKKKTVPQKVTIAKIPRAKKKYVTRVCGLATFEIDLKEAQRFFAQKFSCGASVTGEDEIIIQGDFTDDIIDVIQEKWPEVDDDSIEDLGEVKK	not soluble
MTIVIGFEGSANKIGIGIIKDGEVLSNPRRTYITPPGQGFLPGETAKHHRSVILTVLQEALDEAGLKAADIDCVAYTKGPGMGAPLVTVAIVARTVAQLWGKPLLGVNHCIGHIEMGRLITNAQNPTVLYVSGGNTQVIAYSERRYRIFGETIDIAVGNCLDRFARVIKISNDPSPGYNIEQMAKKGNKYIELPYTVKGMDVSFSGILSYIEDAAHKMLSTDQCTPEDLCFSLQETVFAMLVEITERAMAHCGSQEVLIVGGVGCNLRLQEMMGVMCKERGARLFATDESFCIDNGAMIAQAGWEMFRSGHVTELPDSWITQRYRTDEVEVTWRD	soluble
MELKNSISDYTETEFKKIIEDIINCEGDEKKQDDNLEHFISVTEHPSGSDLIYYPEGNNDGSPEAVIKEIKEWRAANGKSGFKQG	soluble
DKEVVVLGSGDPMFHGIGSTLHRLLPNHSMTVIPQPSSASLACARLGWALDTTSVYSLVTHPIAHLTLAIEQGDRFLVLGRNHESPHEICEHLISLGQSTAEVTVLSDIGSVSETITSGAATDYPSNDSALNVIAIRPLAATRSRVPGLPDSEYVTDGQLTKQHVRALAISALAPKPHETLWDIGGGSGSIAIEWLRSTPQTTAVCFEISEERRERILSNAINLGVSDRIAVQQGAPRAFDDVPDNPD	not soluble
GLIVDTRDVEERVHVMRKTKLAPTVAHGVFNPEFGPAALSNKDPRLNEGVVLDEVIFSKHKGDTKMSAEDKALFRRCAADYASRLHSVLGTANAPLSIYEAIKGVDGLDAMEPDTAPGLPWALQGKRRGALIDFENGTVGPEVEAALKLMEKREYKFACQTFLKDEIRPMEKVRAGKTRIVDVLPVEHILYTRMMIGRFCAQMHSNNGPQIGSAVGCNPDVDWQRFGTHFAQYRNVWDVDYSAFDANHCSDAMNIMFEEVFRTEFGFHPNAEWILKTLVNTEHAYENKRITVEGGMPSGCSATSIINTILNNIYVLYALRRHYEGVELDTYTMISYGDDIVVASDYDLDFEALKPHFKSLGQTITPADKSDKGFVLGHSITDVTFLKRHFHMDYGTGFYKPVMASKTLEAILSFARRGTIQEKLISVAGLAVHSGPDEYRRLFEPFQGLFEIPSYRSLYLRWVNAVCGDAAALE	soluble
MSLEAKKDMGRCLWELKDEIDHVDRYCHDLAAWDDLHAFIKAPNADFLKINLNADTILDNEVSFICIVDRSGQLLFAEDWDLHRKEKTVLTTLPDSLRSVASLPFSSESDKDDLSNMKRVGIYNSSRGPMMLSSRPIITSNQQGPVQGAVIIGRLLDQGSLDAMMVRVALNFRFIDMSGDELTAKEKKILGELAVEEISIVERENSDNLEVYSHLADIGGRYLIQAEIPKHILQREGHHHHHH	soluble
SRRMKANARERNRMHGLNAALDNLRKVVPCYSKTQKLSKIETLRLAKNYIWALSEILRSG	soluble
MGSDKIHHHHHHMKIQEVKRILTRWQPSSFSLYREVFTQYGGSINMHPDIVDYFMKRYNWHFKFFHYKEDDKIKGAYFICNDQNIGILTRRTFPLSSDEILIPMAPDLRCFLPDRTNRLSALHQPQIRNAIWKLARKKQNCLVKETFSSKFEKTRRNEYQRFLKKGGSVKSVADCSSDELTHIFIELFRSRFGNTSSCYPADNLANFFSQLHHLLFGHILYIEGIPCAFDIVLKSESQMNIYFDVSNGAIKNECRPLSPGSILMWLNISRARHYCQERQKKLLFSIGILKPEWEYKRMWSTPYFTGKSIC	not soluble
MILAQKQKQVIRLNLISTWRKLISSTKIPNWLSQTKIQSKYQTRGIYPGSFFQKTIFRKDGSMSVQRTLQKYMDDWKRISHFDFCLLQEDNSILVTTCDRRLPAESKLEEFRNSTALCLSNATCCLYKITEKNEQLLLIVWGSEDSVSTIGELAVCQIESILESYAEKNDKNAFMQKLLLGDYTDVEAFNRARKLHISSSARRAVFLVETRQSKDEHALATIKNIFSARTHDFITSIDNRGIIVVRELTSTETYDDLENIAHMLVDMLGTEAMTQAWVAYSNTANDLKDLSNAYKEARTALEIGKIFYAERNVFGYRTLGIGRLLYQLPVSICEMFIQEIFGDESLDSIDGETLAIIRTFFENNLNLSETSRQLYVHRNTLVYRFEKIQKRFGLDLRTFEDAMTFKLAMLVSRYLRYQNRT	not soluble
MAASLRLLGAASGLRYWSRRLRPAAGSFAAVCSRSVASKTPVGFIGLGNMGNPMAKNLMKHGYPLIIYDVFPDACKEFQDAGEQVVSSPADVAEKADRIITMLPTSINAIEAYSGANGILKKVKKGSLLIDSSTIDPAVSKELAKEVEKMGAVFMDAPVSGGVGAARSGNLTFMVGGVEDEFAAAQELLGCMGSNVVYCGAVGTGQAAKICNNMLLAISMIGTAEAMNLGIRLGLDPKLLAKILNMSSGRCWSSDTYNPVPGVMDGVPSANNYQGGFGTTLMAKDLGLAQDSATSTKSPILLGSLAHQIYRMMCAKGYSKKDFSSVFQFLREEETF	soluble
MGSDKIHHHHHHMTVFILNGEEPNQEGVRYVAKLLKREKLVEDIHFSTIDEIPLDNSYVLGDHSGTYFILKKIKPNALISLDAHTDLMQDYFDHASWLAYALKDNIIKRASVIGAVLMIPTTSGTKLWKRGVKVFPALPRTKKIRGKWKAYTNLEQHGVERVLKETREFLGKEIYLSIDLDVLSPEYRIARFQHGELTLRELLDIIEAIKKNFKIIAFDVAEISFRVAKSKYGRRAIIEVFSSLKEVFE	not soluble
LPLCFADASGTLRYVNDRFTRLFGYAPEDIPTQEEWWSRVCTDGRCRGETADAWQASVQRGPNGASDIEPAEFRVACKNGDIRLVEVSGITIEGTVLATFIDI	not soluble
MGSDKIHHHHHHVDLSVMNRKRSESFNEVAEIYDAARPSYPSQLIEDVIEMANLTDSASILDIGTGTGKGTVPFAEKGYAIYCLEPGERLIAIASQNMRLYPKVIFETVTLEDWNLRPSAFDLAISAQAFHWVNREKGYPKVAQALKEKGYIAFFWNFSILPDTSIFQALKETFQKYVPTISNAKPSSVESLIKKRENWILNSFYFKNLVVKKYPWSINYDAEGYLGLLKTQTAYQKFTGTEKQDFSDAIIQILNAHGGYVTKPYLSVLFFAQKI	not soluble
MSLQNADRLSREYVAGVNFLLSNQQDKAVDLFLEMLKEDSSAFEAHLTLGNLFRSRGEVERAIRIHQSLMESASLTFDQRLLATQQLGRDYMSAGLYDRAENMFAQLVNEKDFQENAFQSLLTIYQSTSDWKKAIDIAEKLVKSGKHDLREKIAHFYCELALQEMSGDDLDEAIGYLNKAVQADKNCARVSIMLGRLFMARQEYNKAADALKSVLEQDKQLVSEVLPILQECYQHQNQIDEWENFLKRCVEEDCGATAELLLADIIEQQKGHEVAQTYINHRLERHPTMRLFYRLMDYHLAEAEEGRAKESIILLRDMVGEQIRTKPNYRCHKCGFTSHSLYWHCPSCRSWDSIKPIRGLDGQEGHHHHHH	not soluble
